Source: US12576170B2, “Rk polypeptide radiopharmaceutical targeting HER2 and preparation method thereof” (BEIJING GILUNTIDE PHARMACEUTICAL CO., LTD., priority 2019, dated 2026)

Columns and labels:
water solubility = assay type: physicochemical; settings: compared with refvffly polypeptide
[1] = system: MCF7 of no HER2 expression; assay: cell binding assay, MCF7 cells; design: species or system Human
Description: (§1) The rk polypeptide radiopharmaceuticals were sampled for radioactive HPLC analysis. The HPLC was conducted in an Agilent 1260 HPLC system equipped with a YMC-Pack ODS-A analytic column (250× 4.6 mm, I.D. S-5 μm, 12 nm), and a 20-min gradient elution was performed at a flow rate of 1 mL/min, wherein the mobile A phase was deionized water (containing 0.05% TFA) and the mobile B phase was acetonitrile (containing 0.05% TFA). The elution gradients were 90% A and 10% B at beginning, and 30% A and 70% B at 20 min. The labeling rate of ^99mTc-HYNIC-PEG4-(Aoc-rk)2 was >95%, and the radiochemical purity was >98% as measured by HPLC with a Sep-Pak C18 column. The results of a binding affinity assay of HYNIC-PEG4-(Aoc-rk)2 to HER2 are shown in FIG. 3: Human breast cancer cells SKBR3 of high HER2 expression and MCF7 of no HER2 expression were used as experimental samples, and ^99mTc-HYNIC-PEG4-(Aoc-rk)2 was used as a radioactive ligand specifically binding to HER2 receptor. In this cell binding assay, the binding capacities of ^99mTc-HYNIC-PEG4-(Aoc-rk)2 to SKBR3 and MCF7 were measured, with a blocking group treated with excessive HYNIC-PEG4-(Aoc-rk)2 to verify the binding specificity of ^99mTc-HYNIC-PEG4-(Aoc-rk)2 to SKBR3.

[2] = system: HER2-negative EGFR-positive MDA-MB-468 breast cancer model; assay: imaging in HER2-negative/EGFR-positive tumor model; assay type: in vivo; settings: FIG. 13
Source text: Since EGFR and HER2 are members of the same family and have similar structures, they are difficult to be distinguished by targeting molecules. As such, false positives and false negatives are inevitable when detecting tumors.

[3] = system: HER2-positive model (SKBR3 breast tumor model); settings: in vivo
Source text: This is especially critical for breast cancer tumors in situ in the thorax, since the contrast agent ^99mTc-HPArk2 of the present invention is more advantageous in imaging breast cancer lesions in situ.
The specific difference of in vivo pharmacokinetics between the present invention and the radiopharmaceutical disclosed in Patent No. CN 109045313 A is shown in FIG. 11. FIG. 11 illustrates the uptake in tumor and comparison of data corresponding to the images in FIG. 10. […] FIG. 11 panel B illustrates the results of calculations from FIG. 11 panel A. The uptakes in tumor and the organs were compared and analyzed. […] As is also seen in FIG. 10, a smaller tumor was visualized by ^99mTc-HPArk2 imaging, and the imaging effect is guaranteed. […] Therefore, the contrast ratio for imaging is better, and particularly, the low uptake in heart and liver in the chest cavity may facilitate clear imaging of the in-situ tumor of the breast cancer.

[4] = design: species or system NOD SCID mice; settings: mouse, in vivo, iv
Description: The biodistribution of ^99mTc-HYNIC-PEG4-(Aoc-rk)2 in tumor-bearing mice: NOD SCID mice bearing SKBR3 tumor were randomized with 4 mice in each group. Each group of mice were injected with different ^99mTc-labeled polypeptides via tail vein, and sacrificed at 30 and 60 min after injection. Samples of blood and major organs were collected, weighed and measured for radiological counting, and the decay-corrected percent injection dose rate per gram of tissue (% ID/g) was calculated. The results of the experiment are shown in FIG. 8, in which the uptake in tumor at 30 min was 3.7% ID/g, and the uptake was low in blood and organs other than kidney.

HER2 [5] = target: T1, HER2 (Homo sapiens, UniProt P04626); assay: correlation between uptake in tumor and HER2 expression level in tumor models; assay type: in vivo, mouse; design: tumor cells with different HER2 expression levels, including human breast cancer cell lines SKBR3, MCF7 and MDA-MB-468; endogenous in cells; host or cells: SKBR3, MCF7, MDA-MB-468, HT29, BxPC3 human tumour cells as xenografts in mice; settings: SKBR3 (high), HT29 (moderate), BxPC3 (low HER2) tumor models
Source text: (§2) Thus the polypeptide is suitable for delayed imaging and more beneficial for tumor diagnosis.
Correlation between uptake of ^99mTc-HYNIC-PEG4-(Aoc-rk)2 in tumor and HER2 expression level: tumor cells with different HER2 expression levels, including human breast cancer cell lines SKBR3, MCF7 and MDA-MB-468, human colorectal cancer cell line HT29 and human pancreatic cancer cell line BxPC3, were selected and subjected to flow cytometry for quantitative analysis of HER2 expression in cells. Then the tumor models of the cells were subjected to SPECT/CT imaging, and the uptake in tumor was quantitatively analyzed. Finally, the correlation between HER2 expression and the uptake in tumor was investigated.
Flow cytometry: The cells were digested using 0.25% EDTA/pancreatin, blocked for 15 min, centrifuged, washed with PBS, and divided into a treatment group and a control group. […] The two groups were incubated for 0.5 h in the dark at 4° C., washed for 3 times using cold PBS, and analyzed on a flow cytometer. The mean fluorescence intensity (MFI) of the bound antibody on each cell was calculated through a standard flow cytometry curve. […]
Analysis of correlation between HER2 expression level and uptake in tumor: the linear relationship between HER2 expression level (MFI) and uptake in tumor (% ID/g) was plotted using prism 7.0 software, and the R^2 value was calculated.

SKBR3 breast tumor model = system: SKBR3 breast tumor model; design: species or system NOD SCID mice; settings: mouse, in vivo
Description: as §2
SPECT/CT imaging: Different tumor models with similar tumor sizes were selected, administered with 1 mCi ^99mTc-HYNIC-PEG4-(Aoc-rk)2 through tail vein, and subjected to SPECT/CT imaging 0.5 h later. The SPECT images were reconstructed after imaging, fused with the CT image to give 3D images of the mouse, and the tumor lesion was extracted by In VivoScope software for quantitative analysis.
Preparation of ^99mTc-HYNIC-PEG4-(PEG4-rk) 2:500 μL of a mixture containing 5.0 mg of trisodium triphenylphosphine-3,3′, 3″-trisulfonate (TPPTS), 6.5 mg of tricine, 38.5 mg of disodium succinate hexahydrate, 12.7 mg of succinic acid and 50 μg of HYNIC-PEG4-(PEG4-rk)2 was prepared in a 10 mL vial and lyophilized. 1.0-1.5 mL of Na^99mTcO4 solution (10-35 mCi) was added to the lyophilized powder. The vial was incubated in a water bath at 100° C. for 20-25 min, and cooled at room temperature for 10 min after the reaction is completed to give the rk polypeptide radiopharmaceutical. The rk polypeptide radiopharmaceuticals were sampled for radioactive HPLC analysis. The HPLC was conducted in an Agilent 1260 HPLC system equipped with a YMC-Pack ODS-A analytic column (250× 4.6 mm, I.D. S-5 μm, 12 nm), and a 20-min gradient elution was performed at a flow rate of 1 mL/min, wherein the mobile A phase was deionized water (containing 0.05% TFA) and the mobile B phase was acetonitrile (containing 0.05% TFA). The elution gradients were 90% A and 10% B at beginning, and 30% A and 70% B at 20 min. The labeling rate of ^99mTc-HYNIC-PEG4-(PEG4-rk)2 was >95%, and the radiochemical purity was >98% as measured by a Sep-Pak C18 column.

[6] = system: SKBR3 of high HER2 expression; assay: cell binding assay, SKBR3 cells; design: species or system Human
Description: as §1

HER2 [7] = target: T1, HER2; assay: HER2 binding specificity detection at protein and cell level; settings: protein and cellular levels, FIG. 12
breast cancer = assay type: in vivo, human patients
Description: SPECT/CT imaging of ^99mTc-HYNIC-PEG4-(Aoc-rk)2 in breast cancer patients: with approval by the Ethics Review Committee of the Peking Union Medical College Hospital and informed consent, 20 female patients with suspected breast cancer by molybdenum target X-ray or ultrasonography were recruited and subjected to SPECT/CT imaging and PET/CT imaging 1 week before surgery. The patients were administered intravenously with 11.1 MBq (0.3 mCi)/kg body weight of ^99mTc-HYNIC-PEG4-(Aoc-rk)2 30 min before SPECT/CT scan, and 5.6 MBq (0.15 mCi)/kg body weight of ^18F-FDG 60 min before PET/CT scan.

CC(C)C[C@@H](NC(=O)[C@@H](CCCNC(=N)N)NC(=O)[C@@H](CC(C)C)NC(=O)[C@@H](CCC(=O)O)NC(=O)[C@@H](Cc1c[nH]c2ccccc12)NC(=O)[C@@H](CC(N)=O)NC(=O)[C@H](N)CCCNC(=N)N)C(=O)N[C@H](CCCCN)C(=O)O [rk polypeptide, Arg-Asn-Trp-Glu-Leu-Arg-Leu-Lys]
water solubility (water solubility): superior to that of refvffly polypeptide

CC(C)C[C@@H](NC(=O)[C@@H](CCCNC(=N)N)NC(=O)[C@@H](CC(C)C)NC(=O)[C@@H](CCC(=O)O)NC(=O)[C@@H](Cc1c[nH]c2ccccc12)NC(=O)[C@@H](CC(N)=O)NC(=O)[C@@H](CCCNC(=N)N)NC(=O)CCCCCCCNC(=O)CC[C@H](NC(=O)CCOCCOCCOCCOCCNC(=O)c1ccc(NN)nc1)C(=O)NCCCCCCCC(=O)N[C@H](CCCNC(=N)N)C(=O)N[C@H](CC(N)=O)C(=O)N[C@H](Cc1c[nH]c2ccccc12)C(=O)N[C@H](CCC(=O)O)C(=O)N[C@H](CC(C)C)C(=O)N[C@H](CCCNC(=N)N)C(=O)N[C@H](CC(C)C)C(=O)N[C@H](CCCCN)C(=O)O)C(=O)N[C@H](CCCCN)C(=O)O [^99mTc-HYNIC-PEG4-(Aoc-rk)2, metal not drawn]
binding rate per 10^5 cells [1]: 1.14 % per 10^5 cells
imaging result in HER2-negative EGFR-positive model [2]: negative result
hepatic uptake (FIG. 10) [3]: lowest
ratios of tumor to normal tissues such as blood, heart, liver, spleen, intestine and stomach [3]: relatively higher
uptake in blood, heart, liver, spleen, intestine, stomach, bone and other tissues [3]: relatively lower
uptake in tumor (biodistribution, FIG. 11) [3]: relatively higher uptake in tumor than those of ^99mTc-HP4-ref and ^99mTc-HP24-ref
uptake in tumor (image quantification, FIG. 10) [3]: higher uptake in tumor than that of ^99mTc-HP24-ref, with no significant difference from ^99mTc-HP4-ref
uptake ratio of tumor to liver [3]: highest
tissue uptake at 0.5 h [4]: 3.7 %ID/g
relation of uptake to HER2 expression level (SPECT/CT) (HER2 [5]): linearly related to the expression level of HER2
tumor visualization in delayed imaging (SKBR3 breast tumor model): still clearly visualized
uptake in tumor (SPECT/CT) (SKBR3 breast tumor model): clearly visible and significantly higher than that of the monomer
uptake in tumor, Herceptin blocking group (SKBR3 breast tumor model): substantially unchanged
uptake in tumor, cold peptide blocking group (SKBR3 breast tumor model): significantly reduced uptake in tumor
whole-body background (SPECT/CT) (SKBR3 breast tumor model): clean whole-body background
binding rate per 10^5 cells, blocking group ([6]; SKBR3 blocking group treated with excessive HYNIC-PEG4-(Aoc-rk)2): 1.24 % per 10^5 cells
binding rate per 10^5 cells ([6]; SKBR3 cells): 4.49 % per 10^5 cells
HER2 specificity (HER2 [7]): good specificity at both protein and cellular levels
patients with lymph node metastasis in whom metastasis was shown (breast cancer; 5 of 6 patients): 83%
patients with pathologically diagnosed breast cancer whose tumor was accurately imaged (breast cancer; 14 of 15 patients, 11.1 MBq/kg i.v., 30 min before scan): 93%
adverse effects during the clinical trial (breast cancer; human, in vivo): No adverse effect related to the radiopharmaceutical was found
